Assay results taken from paper PMC11177981 (2024).

B1: FLAG-GLUT4 (human full length) expressed in HEK293T cells [human] / retinoic acid inducible gene I (RIG-I), endogenous in HEK293T cells [human (endogenous in HEK293T)] (parent complex)
chain 1: MPSGFQQIGSEDGEPPQQRVTGTLVLAVFSAVLGSLQFGYNIGVINAPQKVIEQSYNETWLGRQGPEGPSSIPPGTLTTLWALSVAIFSVGGMISSFLIGIISQWLGRKRAMLVNNVLAVLGGSLMGLANAAASYEMLILGRFLIGAYSGLTSGLVPMYVGEIAPTHLRGALGTLNQLAIVIGILIAQVLGLESLLGTASLWPLLLGLTVLPALLQLVLLPFCPESPRYLYIIQNLEGPARKSLKRLTGWADVSGVLAELKDEKRKLERERPLSLLQLLGSRTHRQPLIIAVVLQLSQQLSGINAVFYYSTSIFETAGVGQPAYATIGAGVVNTVFTLVSVLLVERAGRRTLHLLGLAGMCGCAILMTVALLLLERVPAMSYVSIVAIFGFVAFFEIGPGPIPWFIVAELFSQGPRPAAMAVAGFSNWTSNFIIGMGFQYVAEAMGPYVFLLFAVLLLGFFIFTFLRVPETRGRTFDQISAAFHRTPSLLEQEVKPSTELEYLGPDEND
chain 2: MTTEQRRSLQAFQDYIRKTLDPTYILSYMAPWFREEEVQYIQAEKNNKGPMEAATLFLKFLLELQEEGWFRGFLDALDHAGYSGLYEAIESWDFKKIEKLEEYRLLLKRLQPEFKTRIIPTDIISDLSECLINQECEEILQICSTKGMMAGAEKLVECLLRSDKENWPKTLKLALEKERNKFSELWIVEKGIKDVETEDLEDKMETSDIQIFYQEDPECQNLSENSCPPSEVSDTNLYSPFKPRNYQLELALPAMKGKNTIICAPTGCGKTFVSLLICEHHLKKFPQGQKGKVVFFANQIPVYEQQKSVFSKYFERHGYRVTGISGATAENVPVEQIVENNDIIILTPQILVNNLKKGTIPSLSIFTLMIFDECHNTSKQHPYNMIMFNYLDQKLGGSSGPLPQVIGLTASVGVGDAKNTDEALDYICKLCASLDASVIATVKHNLEELEQVVYKPQKFFRKVESRISDKFKYIIAQLMRDTESLAKRICKDLENLSQIQNREFGTQKYEQWIVTVQKACMVFQMPDKDEESRICKALFLYTSHLRKYNDALIISEHARMKDALDYLKDFFSNVRAAGFDEIEQDLTQRFEEKLQELESVSRDPSNENPKLEDLCFILQEEYHLNPETITILFVKTRALVDALKNWIEGNPKLSFLKPGILTGRGKTNQNTGMTLPAQKCILDAFKASGDHNILIATSVADEGIDIAQCNLVILYEYVGNVIKMIQTRGRGRARGSKCFLLTSNAGVIEKEQINMYKEKMMNDSILRLQTWDEAVFREKILHIQTHEKFIRDSQEKPKPVPDKENKKLLCRKCKALACYTADVRVIEECHYTVLGDAFKECFVSRPHPKPKQFSSFEKRAKIFCARQNCSHDWGIHVKYKTFEIPVIKIESFVVEDIATGVQTLYSKWKDFHFEKIPFDPAEMSK

Variants of: B1
Assay: co-IP (IP: FLAG) with immunoblot band densitometry; HEK293T cells; FLAG-GLUT4 plasmids, endogenous RIG-I; Vector, pcDNA3.1-FLAG; read off a plot

response	Variant
~1.1 band density ratio (RIG-I/GLUT4)	chain 1 R169A
